Assay results from patent EP0871495B1.

Biological target: MHC class II antigen on the Raji B cell line
Assay: cell-based or functional assay

CD4:ζ chimera (CD4 extracellular domain fused to human T cell receptor ζ chain)
cytolysis (51Cr release) of Raji (MHC class II+) cells by CTL expressing CD4:ζ: 5 % cytolysis
